From patent publication US20260022175A1 (Chugai, published 2026)

What was measured:
[1] = molecular target: T1, human FcγRIa extracellular domain with C-terminal His-tag (human, UniProt P12314 16-292); assay: SPR Biacore T200, Ab captured via Fab-lambda, pH 7.4, 25C;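 further: antibodies captured on a streptavidin chip carrying biotinylated anti-Fab-lambda, with each FcγR injected as analyte in phosphate buffer. KD fitted by 1:1 Langmuir or steady-state model depending on receptor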
T1 construct: extracellular domain; also called hFcγR Ia; hFcγRIa
Experimental: (§1) The interaction between the generated antibodies and human FcγRs was analyzed by the following method using Biacore T200. 50 mM Na-Phosphate, 150 mM NaCl, 0.05% Tween20 (pH 7.4) was used as the running buffer, and the assay was performed at 25° C. For the sensor chips, Series S SA (GE Healthcare) chips onto which CaptureSelect Human Fab-lambda Kinetics Biotin Conjugate (Thermo Fisher Scientific) was immobilized were used. The antibodies of interest were captured onto these chips and each FcγR diluted in the running buffer was allowed to interact with them. Chips were regenerated with 10 mM Glycine-HCl (pH 1.5) and 25 mM NaOH, and assay was performed by repeatedly capturing antibodies. The dissociation constants KD (mol/L) for FcγRs of each antibody were calculated using Biacore T200 Evaluation Software 2.0, using the 1:1 Langmuir binding model for FcγRIa and FcγRIIIa and the steady state affinity model for FcγRIIa. For FcγRIIb, the binding amount of FcγRIIb per unit amount of antibody was calculated by correcting the binding amount of FcγRIIb obtained from the sensorgram obtained by the measurement with the amount of antibody captured onto the chip surface.

[2] = molecular target: T2, human FcγRIIa R allotype extracellular domain with C-terminal His-tag (human, UniProt P12318 34-217); assay: as above
T2 construct: extracellular domain; also called hFcγR IIa R
T2 sequence (looked up): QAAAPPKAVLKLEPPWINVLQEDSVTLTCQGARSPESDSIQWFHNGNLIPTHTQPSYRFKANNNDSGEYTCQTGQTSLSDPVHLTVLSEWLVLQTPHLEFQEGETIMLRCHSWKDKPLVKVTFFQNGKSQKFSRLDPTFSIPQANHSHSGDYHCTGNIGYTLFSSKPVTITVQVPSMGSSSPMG
Experimental: as §1

[3] = molecular target: T3, human FcγRIIa H allotype extracellular domain with C-terminal His-tag (human, UniProt P12318 34-217); assay: as above
T3 construct: extracellular domain; also called hFcγR IIa H
T3 sequence (looked up): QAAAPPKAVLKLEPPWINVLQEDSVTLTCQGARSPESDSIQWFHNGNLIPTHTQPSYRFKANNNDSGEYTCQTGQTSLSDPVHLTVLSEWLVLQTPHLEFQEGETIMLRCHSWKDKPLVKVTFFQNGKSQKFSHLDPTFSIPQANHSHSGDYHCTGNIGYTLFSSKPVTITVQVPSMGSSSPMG
Experimental: as §1

[4] = molecular target: T4, human FcγRIIIa F allotype extracellular domain with C-terminal His-tag (human, UniProt P08637 17-208); assay: as above
T4 construct: extracellular domain; also called hFcγR IIIa F
Experimental: as §1

[5] = molecular target: T5, human FcγRIIIa V allotype extracellular domain with C-terminal His-tag (human, UniProt P08637 17-208); assay: as above
T5 construct: extracellular domain; also called hFcγR IIIa V
Experimental: as §1

[6] = molecular target: T6, human FcγRIIb extracellular domain with C-terminal His-tag (human, UniProt P31994 43-217); assay: SPR; FcγRIIb at 1000 nM, bound amount per unit captured Ab
T6 construct: extracellular domain; also called hFcγR IIb
T6 sequence (looked up): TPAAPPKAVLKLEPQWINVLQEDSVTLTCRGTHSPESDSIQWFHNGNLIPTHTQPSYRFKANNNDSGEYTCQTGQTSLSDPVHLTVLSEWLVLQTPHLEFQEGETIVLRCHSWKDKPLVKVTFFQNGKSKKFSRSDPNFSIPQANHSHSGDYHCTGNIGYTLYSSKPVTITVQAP

human FcRn [7] = molecular target: T7, human FcRn (human, UniProt P55899 24-290; P61769 21-119); assay: SPR; KD of 04H1637-G1m/04L1610-lam1 divided by KD of variant;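 further: biacore T200 SPR at 25 °C, antibodies captured on anti-Fab-lambda SA chip with receptor as analyte, running buffer pH 7.4 for FcγRs and pH 6.0 for FcRn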
T7 construct: Prepared by the method of WO 2010/107110; also called hFcRn

[8] = molecular target: T1, human FcγRIa extracellular domain with …; assay: as above
[9] = molecular target: T2, human FcγRIIa R allotype extracellular …; assay: as above
[10] = molecular target: T3, human FcγRIIa H allotype extracellular …; assay: as above
[11] = molecular target: T4, human FcγRIIIa F allotype extracellular …; assay: as above
[12] = molecular target: T5, human FcγRIIIa V allotype extracellular …; assay: as above
[13] = molecular target: T6, human FcγRIIb extracellular domain with …; assay: SPR; binding amount divided by that of 04H1637-G1m/04L1610-lam1
human FcRn [14] = molecular target: T7, human FcRn; assay: SPR Biacore T200, Ab captured via Fab-lambda, pH 6.0, 25C, steady state
Experimental: The interaction between the generated antibodies and human FcRn was analyzed by the following method using Biacore T200. 50 mM Na-Phosphate, 150 mM NaCl, 0.05% Tween20 (pH 6.0) was used as the running buffer, and the assay was performed at 25° C. For the sensor chip, Series S SA (GE Healthcare) chips onto which CaptureSelect Human Fab-lambda Kinetics Biotin Conjugate (Thermo Fisher Scientific) was immobilized were used. The antibodies of interest were captured onto these chips and FcRn diluted in the running buffer was allowed to interact with them. Chips were regenerated with 10 mM Glycine-HCl (pH 1.5) and 25 mM NaOH, and assay was performed by repeatedly capturing antibodies. The dissociation constant for FcRn of each antibody was calculated using the steady state model, using Biacore T200 Evaluation Software 2.0.

T7 sequence (P55899 24-290 limits assumed, chain 1 of 2): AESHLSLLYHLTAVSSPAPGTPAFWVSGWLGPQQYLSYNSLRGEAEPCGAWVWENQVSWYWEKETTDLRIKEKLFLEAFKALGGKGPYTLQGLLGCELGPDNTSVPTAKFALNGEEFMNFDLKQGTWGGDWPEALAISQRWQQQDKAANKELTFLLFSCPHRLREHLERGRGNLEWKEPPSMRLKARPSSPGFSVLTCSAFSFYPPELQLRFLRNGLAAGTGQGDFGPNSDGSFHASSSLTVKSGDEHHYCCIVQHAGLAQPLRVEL
T7 sequence (P61769 21-119 limits assumed, chain 2 of 2): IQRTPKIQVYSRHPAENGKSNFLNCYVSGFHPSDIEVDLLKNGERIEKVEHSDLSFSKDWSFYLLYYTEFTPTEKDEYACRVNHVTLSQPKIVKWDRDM
T5 sequence (P08637 17-208 F176V): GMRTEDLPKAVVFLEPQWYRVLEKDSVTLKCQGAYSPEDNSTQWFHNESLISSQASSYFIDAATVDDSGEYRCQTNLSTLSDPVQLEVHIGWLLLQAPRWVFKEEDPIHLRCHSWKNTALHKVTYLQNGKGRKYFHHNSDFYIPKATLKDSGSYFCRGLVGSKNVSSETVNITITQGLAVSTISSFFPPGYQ
T4 sequence (P08637 17-208): as the sequence (P08637 17-208 F176V) above, with V160F counted along it
T1 sequence (P12314 16-292): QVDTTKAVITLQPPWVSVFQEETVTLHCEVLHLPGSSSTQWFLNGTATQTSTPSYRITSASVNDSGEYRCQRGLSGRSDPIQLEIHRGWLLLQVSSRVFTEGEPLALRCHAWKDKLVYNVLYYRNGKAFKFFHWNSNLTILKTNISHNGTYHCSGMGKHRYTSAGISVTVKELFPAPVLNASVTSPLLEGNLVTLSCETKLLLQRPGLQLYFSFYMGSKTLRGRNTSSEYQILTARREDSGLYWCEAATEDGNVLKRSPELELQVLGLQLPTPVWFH

B1: 04H1637-G1m/04L1610-lam1 (antibody, human IgG1, lambda)
heavy: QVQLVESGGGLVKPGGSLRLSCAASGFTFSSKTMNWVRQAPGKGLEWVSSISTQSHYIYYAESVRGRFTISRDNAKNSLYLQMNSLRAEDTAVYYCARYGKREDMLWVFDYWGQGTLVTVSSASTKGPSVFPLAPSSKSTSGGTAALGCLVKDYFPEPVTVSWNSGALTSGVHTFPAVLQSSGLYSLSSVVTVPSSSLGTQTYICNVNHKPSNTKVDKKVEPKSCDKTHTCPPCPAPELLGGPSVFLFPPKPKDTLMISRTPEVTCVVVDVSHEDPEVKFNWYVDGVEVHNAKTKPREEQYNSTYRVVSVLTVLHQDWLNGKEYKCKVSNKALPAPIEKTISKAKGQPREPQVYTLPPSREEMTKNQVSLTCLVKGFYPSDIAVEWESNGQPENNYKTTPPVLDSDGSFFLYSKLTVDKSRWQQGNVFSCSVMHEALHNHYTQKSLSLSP
light: QSALTQPPSASGSPGQSVTISCEGPSTGVGDYNWVHWYQQHPGKAPKLMIYFTSKKPSGVPDRFSGSKSGNTASLTVSGLQAEDEADYYCQTYAAPLGPMFGGGTKLTVLGQPKAAPSVTLFPPSSEELQANKATLVCLISDFYPGAVTVAWKADSSPVKAGVETTTPSKQSNNKYAASSYLSLTPEQWKSHRSYSCQVTHEGSTVEKTVAPTECS
For B1, the Kd [1] was 0.049 nM, the Kd [2] was 2000 nM and the Kd [3] was 1500 nM. It also gave a Kd [4] of 1400 nM, a Kd [5] of 240 nM and a Binding amount [6] of 0.008. For the same binder, the “Relative value to KD between G1m and hFcRn” value (human FcRn [7]) was 1, the “Relative value to KD between G1m and hFcγRs” value [8] was 1 and the “Relative value to KD between G1m and hFcγRs” value [9] was 1. For the same binder, the “Relative value to KD between G1m and hFcγRs” value [10] was 1, the “Relative value to KD between G1m and hFcγRs” value [11] was 1 and the “Relative value to KD between G1m and hFcγRs” value [12] was 1. The Relative binding amount [13] was 1 and the Kd (human FcRn [14]) was 1300 nM.

B2: 04H1654-KT462/04L1610-lam1//04H1656-HT445/04L1610-lam1 (antibody, human IgG1, lambda)
heavy 1: QVQLVESGGGVVQPGGSLRLSCAASGFTFSSKTMNWVRQAPGKGLEWVSSISTQSHYIYYARSVRGRFTISRDNAKNSLYLQMNSLRAEDTAVYYCARYGKREDMLWVFDYWGQGTLVTVSSASTKGPSVFPLAPSSKSTSGGTAALGCLVKDYFPEPVTVSWNSGALTSGVHTFPAVLQSSGLYSLSSVVTVPSSSLGTQTYICNVNHKPSNTKVDKRVEPKSCDKTHTCPPCPAPEFQWGPMVFLFPPKPKDVLMISRTPEVTCVVVDVSDEEPEVKFNWYVDGVEVHNAKTKPREEQYNATYRVVSVLPVLHQDWLNGKEYKCKVSNDALPAPIEKTISKAKGQPREPQVYTLPPSRKEMTKNQVSLTCLVKGFYPSDIAVEWESNGQPENNYKTTPPVLDSDGSFFLYSKLTVDKSRWQQGNVFSCSVMHEALHNHYTQKSLSLSP
heavy 2: QVQLVESGGGVVQPGGSLRLSCAASGFTFSSKTMNWVRQAPGKGLEWVSSISTQSHYIYYAESVRGRFTISRDNAKNSLYLQMNSLRAEDTAVYYCARYGAREDMLWVFDYWGQGTLVTVSSASTKGPSVFPLAPSSKSTSGGTAALGCLVKDYFPEPVTVSWNSGALTSGVHTFPAVLQSSGLYSLSSVVTVPSSSLGTQTYICNVNHKPSNTKVDKRVEPKSCDKTHTCPPCPAPELLAGPSVFLFPPKPKDVLMISRTPEVTCVVVDVSHEEPEVKFNWYVDGVEVHNAKTKPREEQYNATYRVVSVLPVLHQDWLNGKEYKCKVSNDALPKPDEETISKAKGQPREPQVYTLPPSREEMTKNQVSLTCLVKGFYPSDIAVEWESNGQPENNYKTTPPVLDSDGSFFLYSKLTVDKSRWQQGNVFSCSVMHEALHNHYTQESLSLSP
light: QSALTQPPSASGSPGQSVTISCEGPSTGVGDYNWVHWYQQHPGKAPKLMIYFTSKKPSGVPDRFSGSKSGNTASLTVSGLQAEDEADYYCQTYAAPLGPMFGGGTKLTVLGQPKAAPSVTLFPPSSEELQANKATLVCLISDFYPGAVTVAWKADSSPVKAGVETTTPSKQSNNKYAASSYLSLTPEQWKSHRSYSCQVTHEGSTVEKTVAPTECS
notes: Heterodimerized antibody, IGHG1*03 constant region, E356K / K439E
Work on B2 yielded a Kd [1] of 0.03 nM, a Kd [2] of 160 nM and a Kd [3] of 110 nM. The Kd [4] was 3.3 nM, the Kd [5] was 2.2 nM and the Binding amount [6] was 0.025. For the same binder, the “Relative value to KD between G1m and hFcRn” value (human FcRn [7]) was 0.9, the “Relative value to KD between G1m and hFcγRs” value [8] was 1.6 and the “Relative value to KD between G1m and hFcγRs” value [9] was 13. For the same binder, the “Relative value to KD between G1m and hFcγRs” value [10] was 13.9, the “Relative value to KD between G1m and hFcγRs” value [11] was 415 and the “Relative value to KD between G1m and hFcγRs” value [12] was 110. The Relative binding amount [13] was 3.1 and the Kd (human FcRn [14]) was 1500 nM.

B3: 04H1654-KT461/04L1610-lam1//04H1656-HT443/04L1610-lam1 (antibody, human IgG1, lambda)
heavy 1: QVQLVESGGGVVQPGGSLRLSCAASGFTFSSKTMNWVRQAPGKGLEWVSSISTQSHYIYYARSVRGRFTISRDNAKNSLYLQMNSLRAEDTAVYYCARYGKREDMLWVFDYWGQGTLVTVSSASTKGPSVFPLAPSSKSTSGGTAALGCLVKDYFPEPVTVSWNSGALTSGVHTFPAVLQSSGLYSLSSVVTVPSSSLGTQTYICNVNHKPSNTKVDKRVEPKSCDKTHTCPPCPAPEFQWGPMVFLFPPKPKDVLMISRTPEVTCVVVDVSDEEPEVKFNWYVDGVEVHNAKTKPREEQYNATYRVVSVLPVLHQDWLNGKEYKCKVSNDALPAPEEKTISKAKGQPREPQVYTLPPSRKEMTKNQVSLTCLVKGFYPSDIAVEWESNGQPENNYKTTPPVLDSDGSFFLYSKLTVDKSRWQQGNVFSCSVMHEALHNHYTQKSLSLSP
heavy 2: QVQLVESGGGVVQPGGSLRLSCAASGFTFSSKTMNWVRQAPGKGLEWVSSISTQSHYIYYAESVRGRFTISRDNAKNSLYLQMNSLRAEDTAVYYCARYGAREDMLWVFDYWGQGTLVTVSSASTKGPSVFPLAPSSKSTSGGTAALGCLVKDYFPEPVTVSWNSGALTSGVHTFPAVLQSSGLYSLSSVVTVPSSSLGTQTYICNVNHKPSNTKVDKRVEPKSCDKTHTCPPCPAPELLAGPSVFLFPPKPKDVLMISRTPEVTCVVVDVSHEEPEVKFNWYVDGVEVHNAKTKPREEQYNATYRVVSVLPVLHQDWLNGKEYKCKVSNDALPAPEEETISKAKGQPREPQVYTLPPSREEMTKNQVSLTCLVKGFYPSDIAVEWESNGQPENNYKTTPPVLDSDGSFFLYSKLTVDKSRWQQGNVFSCSVMHEALHNHYTQESLSLSP
light: QSALTQPPSASGSPGQSVTISCEGPSTGVGDYNWVHWYQQHPGKAPKLMIYFTSKKPSGVPDRFSGSKSGNTASLTVSGLQAEDEADYYCQTYAAPLGPMFGGGTKLTVLGQPKAAPSVTLFPPSSEELQANKATLVCLISDFYPGAVTVAWKADSSPVKAGVETTTPSKQSNNKYAASSYLSLTPEQWKSHRSYSCQVTHEGSTVEKTVAPTECS
notes: Heterodimerized antibody
B3 showed a Kd [1] of 0.032 nM, a Kd [2] of 240 nM and a Kd [3] of 200 nM. It also gave a Kd [4] of 2.6 nM, a Kd [5] of 1.5 nM and a Binding amount [6] of 0.025. The “Relative value to KD between G1m and hFcRn” value (human FcRn [7]) was 0.9, the “Relative value to KD between G1m and hFcγRs” value [8] was 1.5 and the “Relative value to KD between G1m and hFcγRs” value [9] was 8.4. The “Relative value to KD between G1m and hFcγRs” value [10] was 7.3, the “Relative value to KD between G1m and hFcγRs” value [11] was 526 and the “Relative value to KD between G1m and hFcγRs” value [12] was 156. It also gave a Relative binding amount [13] of 3.1 and a Kd (human FcRn [14]) of 1500 nM.
